# According to a protein production outcome set (Wang et al. 2014):
# Experiment: label from the status in PepcDB records
# 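Also: failed if final PepcDB status was selected cloned or expressed and not failed if soluble or beyond.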
row,Sequence,protein production
1,MSLVGKTLSGRYRVVRPLARGALARVYLAFDPFGTPYALKLFPPKARPRRDRELWVGRRLAHPNLNPVLEALDLEEGPALLLAYAPGEELGRWMGKSPAFSQAMRVFHQLLLALAHMHEKGLVHRDVKPENILVNAGEARLLDFDLSGPAQERFQKPLLLGTPAYLAPELLRGLPSGPEADVYAAGIILYWMLTGEHPFADPSGRVSLDPDRGPHPPVAGLGEEAALYLERLLAPDPKARFPTAQEALKAFPF,failed
2,MHMLFYKSYVREFIGEFLGTFVLMFLGEGATANFHTTGLSGDWYKLCLGWGLAVFFGILVSAKLSGAHLNLAVSIGLSSINKFDLKKIPVYFFAQLLGAFVGTSTVYGLYHGFISNSKIPQFAWETSRNPSISLTGAFFNELILTGILLLVILVVVDENICGKFHILKLSSVVGLIILCIGITFGGNTGFALNPSRDLGSRFLSLIAYGKDTFTKDNFYFWVPLVAPCVGSVVFCQFYDKVICPLVDLANNEKDGVDL,not failed
3,MEDGIENTSPFNGNGESGFFKLPDREILESFRLQKVFPDSPFGFPSGHVALTTALWGGASRVFNSRTAGRLAPMVVLLMAFSRMYLGRHFLGDVIGGAALGLTLLVVFTYFLKSPLKDDFFEKENFKLAFRQKNLFFYSAMFAVPVVFVSLSLISGEVAGFFLGTNTAYLLIIRKGLPEDEGSTGQRALRVFITLMMFGLSALVLDAGFGIIGIAGYPDDTLIEFLKSFIPAFTIWISVSICIKLGLYNIASTEQIE,failed
4,MSLTGFWHDDFNNATPNDICVAIRSEAADAGIAQAIMQQLEEALKQLAQGSGSSQALTQVRRWDSACQKLPDANLALISVAGEYAAELANQALDRNLNVMMFSDNVTLEDEIQLKTRAREKGLLVMGPDCGTSMIAGTPLAFANVMPEGNIGVIGASGTGIQELCSQIALAGEGITHAIGLGGRDLSREVGGISALTALEMLSADEKSEVLAFVSKPPAEAVRLKIVNAMKATGKPTVALFLGYTPAVARDENVWFASSLDEAARLACLLSRVTARRNAIAPVSSGFICGLYTGGTLAAEAAGLLAGHLGVEADDTHQHGMMLDADSHQIIDLGDDFYTVGRPHPMIDPTLRNQLIADLGAKPQVRVLLLDVVIGFGATADPAASLVSAWQKACAARLDNQPLYAIATVTGTERDPQCRSQQIATLEDAGIAVVSSLPEATLLAAALIHPLSPAAQQHTPSLLENVAVINIGLRSFALELQSASKPVVHYQWSPVAGGNKKLARLLERLQGHPHHH,not failed
5,MGGGGHGGGITYKGVTVHTPKTWHTVTGKGLCAVMWFWILYRAKQDGPVVMGWRHPWDGHGDHGHGDHH,failed
6,MLFDTSPKDNRKDFFDREKEIEKLKGLRAPITLVLGLRRTGKSSIIKIGINELNLPYIYLDLRKFEERNYISYKDFLLELQKEINKLVKRLPSLLKALKNIQGIVIMGNEIKFNWNRKDRLSFANLLESFEQASKDNVIIVLDEAQELVKLRGVNLLPALAYAYDNLKRIKFIMSGSEMGLLYDYLRVEDPESPLFGRAFSTVELKPFSREEAIEFLRRGFQEADIDFKDYEVVYEKIGGIPGWLTYFGFIYLDNKNLDFAINQTLEYAKKLILKEFENFLHGREIARKRYLNIMRTLSKCGKWSDVKRALELEEGIEISDSEIYNYLTQLTKHSWIIKEGEKYCPSEPLISLAFS,not failed
7,MEEVYHDEPEKFNHILHLIRDYFNHRDDRARITACMGELMRDHLNLLVRFFDFFPAEASEGLAQLQTIAATSVSPDSTIDDAVSYINTVKEAFHDEPAKYYEFFQLFYDIRYRLIDVAGGITRVEELLKAHKNLLVRLNAFLPPEAQRILHLKIEQRAASDINKRKRVASFIGKLKERFQGDDRHVYESFLEILTMYQEGNKSVNDLYQEVGFLVGTLWLDYTFS,failed
8,STALIQLYSLCEHAFHRHLGSGSDSRQTIERYSSPKVRRLLQTLRCFKPEEVHTQADGLRRMRHQVDQADFNRLSHTLESKCRMVDQMDQPPTETRALVATLEQILHTTEDRQTNRSAARVTPTPTPAHAKPKPSSGANTAQPRTRRRVY,failed
9,MPNILYKIDNQYPYFTKNEKKIAQFILNYPHKVVNMTSQEIANQLETSSTSIIRLSKKVTPGGFNELKTRLSKFLPKEVTQYNVELVDNESTISLKNKLHSRSKAALSNANETINVAIIDEICDLIKNSETIFIYGYGASFVVATDLYQKLSRIGLNIQLVHETHIFTTMLATRNSNDCVIFISNNGTQSEMQSIAKVIADYHIPIATISSTSDNPVAKQSNIVLTYGQTDENEMRMGATTSLFAQMFTIDILYYRYIALNYQSSLDFITQSKIALDNYRKHLSNIDFKH,failed
10,MFKRIAQTAGFTGLLAALLLTLLQSFWVVPLIQQAETYEKAPAEHVHEHADGAVAEHSHAHDEAAWEPENGWQRVLSTTGGNLVVAVGFALMLAGLYTLRAPGRTAQGAWWGLAGFAVFVLAPTLGLPPELPGTAAAELSQRQLWWIGTAASTAAGLALLVFGQNWLLKVLGAAILVVPHVIGAPQPLVHESLAPEALESQFRVASLLTNALFWVALGLISAWLFRRSNVHTDNAHSNHA,failed
11,APRSVAMVVPQGSDIRQLSDLRGKRIALNKGSNVHWLLLQILEDAGLGLNDVRVVYTPPKYPLTASDYLAVDAWMMWDPLLSDAEHTGELRVVASGEGRVNNHQFYLSRRDYLAQHGDIMRRLLTELTHTGQFIDSHRGEAARLLSAELGI,failed
12,MNQHTLLPKKTERLQYFGSVSPIKGEKPVEKEKMKDLQNIRKDYFFDIQHVGVANVSHPVTITSAMMPAEQTTAANFTMTCNLPRNQKGINMSRLTELLQVYHQNGWILSFSSLQQFTKELAENMDTSSATVEVRFPWFFERKSPKLEKAGLMHADIFMSVTYRKDQPFKQRAGISAKVTTLCPCSKEISEYSAHNQRGTVKHLGRIFTRAASLPSDVKADLPHAAESNASARLHPVLKRPDEKAVTETAYENPRFVEDLARLIAADLFELEWVSAFEIECRNEESIHLHRCLCEVCFSKEVDKI,failed
13,SESICNSLNSKLEPTLENLENLDVSAFQAPEDLLDGCRIYLCGFSGRKLDKLRRLINSGGGVRFNQLNEDVTHVIVGDYDDELKQFWNKSAHRPHVVGAKWLLECFSKGYMLSEEPYIH,not failed
14,MYIHLGDDFVVSTREIVAIFDYKAKTSPIVEEFLSKQKQRIVSSNSTPKSIVVTLQSIYFSPLASGTLKKRAQSKPEIDSLEHHHHHH,failed
15,MLSIIVPSYNRKAEVPALLESLTQQTSSNFEVIIVDDCSKERVVVEQSYSFPVTVIRNETNQGAAESRNVGARTSKGDWLLFLDDDDCFMPEKCEKVLQVIEQNPNINFIYHPAKCEMVNEGFTYVTQPIEPQEISTERILLANKIGGMPMIAIKKEMFLKIGGLSTALRSLEDYDFLLKLLQEPSFTPYKINEPLTYCTFHTKRSSVSTDTTNTQKAIDYIREHYVKTVEQARNFDINASYILAYPHIMNLSRKAAKYYFDIFKKTKSIKQFIITLVILISPKLAINLKRLGK,failed
16,TCIYKLADTVSDEYSLQKIIDFLSSTPQGKQAFQKRPQLGVVDLPKLHQLPTDTLGYVYADQMLQNNLQPLQSHEIDNDYQFFKTHITETHDLWHIVTGADTSILGEIQLEAFYVSQLYASRFWLALLAKNLLKAVIYDIELSTPYMDAISTGWVMAKQAKPLFGLEWNLLWEKPLADVRTSLNIILP,failed
17,MKILYPTDFSEVSQKALTECVPSIILGIGEGSELILLHVVDITASEIGALELAEVDKEELNNLASQLREKGIKVKPIVRIGIPSLEISEVAKEENVDLIIIPSKGENILRQMLLGSTASNLARITHKPVLLLRYEVENGEIKSLQDCSRIFEKPLVALDLSKCSEKIIETIKDLPGVREAVLFHVVDYGKVEELENNIKNAKEKLSKYGKLLPWKTKIEVQAGIASKGIIGAAIDNNVTLVVIGKKGRSVLKDLLLGSTAERVIRDCKLPTLLIPCE,failed
18,MLEMIYFAVVAIVGFFFYRKMNGKPMFGFKKKGKSQGGVEKRTAEKNGKKNKKNTPATEEIDEDNVDFFSAFVEDIKEVENHMIRYHDDTFVLIAEAHPVNYYLLSNAEQEAIDIKIESWLTTLEFNTKVYIQSKFVDLTDPVRKMTETMKGAKDLTPETVLYGQEVIDNLEYWQRSQPRYEQKRYLIYPYKVDISTITADTEEELEEKIVDKAFNELYRRYNASRNLLSKAKISVEMLTKDKLIELLYVAFNRRKAVKARFQDLIENENFSLYSTGETNERKLELMKKVLAEEKAEKSNNGVA,failed
19,MMNEPQVSFITVCYNGFKDTCELIESLQTHVHSVSYEIIVVDNASREDEATKIKELYSDIVTLRSESNLGFSGGNNLGIRVAKGAYIFLINNDTYVESDGFHYLTERLESQKNIGAVSPKIRFAFPPQNIQFAGFTSLSAITIRNEMTGFGCPDDGTFDTPHTTPYLHGAALMVKREVIEKVGEMPEIFFLYYEEMDWCTQMTNAGYELWYEPRCTVFHKESQSTGQFSKLRTFYMTRNRLLYTRRNRKGAQRLLSILYQSTIAAGKNSLQFAVKGRFDLFAAVWKGVVRSFSVTSPIRLEHHHHHH,failed
20,MALCGRPARQRSSAGQRYLAVAPARCDHWSPPSVRRVPVGRVGFYPAPVINRDAGGRASMTSQRGFWDRMAERYAARPIKDVAAYEAMLADAAGRLSPSDRVLEIGCGTGGTAIRLAPGVAQWTATDLSPEMVRIASAKPAPPNLSFVVADADLSTGEPPYDAVCAFLILHLVDDIRTTLSAIRDWLKPGGLLLSKTYCIGDMNPALRWGVIPVLQRIGWVPPIKSLMSQQLRAAIAEAGFEIEASRTFGSNSHAHYIVARKPA,failed
21,MQTLREFTRKTKRGNILKIVREHYLRDDIGCGSELCRECFQNEVYQLTSQHANKSTLFKFPHYLVLDTNVVLDQIDVLEEDVLRNVVVLTTVLNEVKHRSSAIYKRFNEIVHDRTRNFYVFVNEHHKETYADREPDETANDRNDRAIRLATKWYDDHLQASQSSKEFERSGKAATRVVLLTDDAANRAKAEAEGILVTTAAEYVKSLEDFPLLMDKLSHKTFDSEKNGLPQYPPHLSMKELLEGLRQNKLLQGTFQASRENYLEGTVNVEKFEKGILIQGRESLNRAVDGDLVAVELLPEAEWSAPSEIVLEEKNVYADEVPSEERAKDENEMLNQVRAAALSAERTPTGRIVGIVRRKWRQYCGILQPSLIEDTNRHIFVPADRKIPRIRIETRQAAMLQNQRIIVTIDTWPRNSRYPHGHFVRSLGPLGDMATENEVILLEHDVPHCKFSDEVLSFLPKMPWTITDEDYSKRVDLRDLYICSVDPPGCTDIDDALHCKELPNGNLEVGVHIADVSHFIRPGNALDMEAAARGTTVYLVGKRIDMVPELLSSNLCSLVGGVERFAFSCVWEVDNEANVLSKRFHKSVIKSKRAMTYEEAQNIIDDATQQNEIAKSLRNLNRLAKILKKRRMDNGALVLASPEIRFQVDSETHEPLEVEVKQMRETNSMVEEFMLLANITVAEHIATEFSECAVLRRHPRPPPTNFDPLVKSARYQGFQVDINSGLELSHSLDKCVKADNPYFNTMIRILTTRCMMQAVYFISGSLQKEEFFHYGLAAPIYTHFTSPIRRYSDIMVHRLLAASIGADSTYAQLLDRKSNEELCHNLNYRHKMAQYAGRASVALNTHLFFRGKEEDEEGYVLFVRKNALQVLIPKYGLEGTLYLKSDKDGKDGVERVKSEIVFTFNEEDHTQRCGDVVFHSFDPVTVRLSLDSSNVQHEKLIFRLVKPYIKGFSVETTTEGTDSQAVSAAPPSKKTKKDKKKK,failed
